B1: His6-N-WASp (natural protein, human, UniProt O00401 1-505, looked up)
chain: MSSVQQQPPPPRRVTNVGSLLLTPQENESLFTFLGKKCVTMSSAVVQLYAADRNCMWSKKCSGVACLVKDNPQRSYFLRIFDIKDGKLLWEQELYNNFVYNSPRGYFHTFAGDTCQVALNFANEEEAKKFRKAVTDLLGRRQRKSEKRRDPPNGPNLPMATVDIKNPEITTNRFYGPQVNNISHTKEKKKGKAKKKRLTKADIGTPSNFQHIGHVGWDPNTGFDLNNLDPELKNLFDMCGISEAQLKDRETSKVIYDFIEKTGGVEAVKNELRRQAPPPPPPSRGGPPPPPPPPHNSGPPPPPARGRGAPPPPPSRAPTAAPPPPPPSRPSVAVPPPPPNRMYPPPPPALPSSAPSGPPPPPPSVLGVGPVAPPPPPPPPPPPGPPPPPGLPSDGDHQVPTTAGNKAALLDQIREGAQLKKVEQNSRPVSCSGRDALLDQIRQGIQLKSVADGQESTPPTPAPTSGIVGALMEVMQKRSKAIHSSDEDEDEDDEEDFEDDDEWED
B2: GST-Arg-SH3 (domain or fragment, mouse, UniProt Q4JIM5 107-167, looked up)
chain: SDPNLFVALYDFVASGDNTLSITKGEKLRVLGYNQNGEWSEVRSKNGQGWVPSNYITPVNS
B3: GST-Arg-SH3SH2 (domain or fragment, mouse, UniProt Q4JIM5 107-263, looked up)
chain: SDPNLFVALYDFVASGDNTLSITKGEKLRVLGYNQNGEWSEVRSKNGQGWVPSNYITPVNSLEKHSWYHGPVSRSAAEYLLSSLINGSFLVRESESSPGQLSISLRYEGRVYHYRINTTTDSKVYVTAESRFSTLAELVHHHSTVADGLVTTLHYPA

Legend:
Test in all cases: pull-down
[1] = target: full-length Arg (His6-Arg) (mouse, UniProt Q4JIM5 1-1182)
Sequence of full-length Arg (His6-Arg) (Q4JIM5 whole entry): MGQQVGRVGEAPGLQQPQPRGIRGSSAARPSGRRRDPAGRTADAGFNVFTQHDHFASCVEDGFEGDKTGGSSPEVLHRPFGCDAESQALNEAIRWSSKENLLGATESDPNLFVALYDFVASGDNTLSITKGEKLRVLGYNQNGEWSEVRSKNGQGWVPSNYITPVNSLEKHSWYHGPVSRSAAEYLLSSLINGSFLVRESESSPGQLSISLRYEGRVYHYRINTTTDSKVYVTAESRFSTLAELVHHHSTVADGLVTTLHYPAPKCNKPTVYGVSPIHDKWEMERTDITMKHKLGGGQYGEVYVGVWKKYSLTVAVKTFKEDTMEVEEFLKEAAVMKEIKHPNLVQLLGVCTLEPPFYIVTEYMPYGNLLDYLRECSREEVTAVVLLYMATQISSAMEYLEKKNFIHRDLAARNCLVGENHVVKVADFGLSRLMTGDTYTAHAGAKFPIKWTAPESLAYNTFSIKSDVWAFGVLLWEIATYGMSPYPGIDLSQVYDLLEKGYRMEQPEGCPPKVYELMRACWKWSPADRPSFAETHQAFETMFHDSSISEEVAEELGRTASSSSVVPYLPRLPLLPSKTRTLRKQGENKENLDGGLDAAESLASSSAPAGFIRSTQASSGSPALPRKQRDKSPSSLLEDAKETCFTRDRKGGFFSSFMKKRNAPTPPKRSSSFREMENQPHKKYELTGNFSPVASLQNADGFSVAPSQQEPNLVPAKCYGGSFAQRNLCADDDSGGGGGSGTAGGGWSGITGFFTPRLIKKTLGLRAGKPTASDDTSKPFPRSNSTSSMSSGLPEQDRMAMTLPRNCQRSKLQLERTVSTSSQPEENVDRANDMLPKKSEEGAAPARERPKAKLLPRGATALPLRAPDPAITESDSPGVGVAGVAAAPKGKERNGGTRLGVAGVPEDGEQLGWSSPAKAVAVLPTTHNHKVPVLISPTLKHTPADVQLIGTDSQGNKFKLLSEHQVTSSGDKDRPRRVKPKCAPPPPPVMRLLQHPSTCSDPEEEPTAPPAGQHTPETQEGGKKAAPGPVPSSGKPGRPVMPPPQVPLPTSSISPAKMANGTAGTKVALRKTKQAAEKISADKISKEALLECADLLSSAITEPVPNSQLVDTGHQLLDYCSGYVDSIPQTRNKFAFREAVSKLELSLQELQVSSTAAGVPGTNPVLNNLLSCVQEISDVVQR

His6-N-WASp = target: B1
[2] = target: Phosphorylated N-WASp (pN-WASp) (human, UniProt O00401 1-505, tyrosine phosphorylated by co-expressed Arg; Y256 is the primary site)

| Kd [1] [nM] | Kd (His6-N-WASp) [nM] | Kd [2] [nM] | Binder |
| --- | --- | --- | --- |
| ≥ 3800 | – | – | B1 |
| – | 1400 ± 200 | – | B2 |
| – | ≥ 3700 | 1700 ± 100 | B3 |
